Data on 46 substances can be found in the Human Domainome abundance scans (Beltran et al. 2025).

± gives the uncertainty stated by the source.

This series can be described thus: abundance fitness (aPCA) (normalised: wild type 0, dead -1); higher = more abundant; growth selection in yeast, the domain comes from the species named. The following applies: Homo sapiens.
The substance “Lipoamide acyltransferase component of branched-chain alpha-keto acid dehydrogenase complex, mitochondrial T171R, P11182” came in with an abundance fitness of -0.578 ± 0.058.

With “Lipoamide acyltransferase component of branched-chain alpha-keto acid dehydrogenase complex, mitochondrial T171S, P11182”, the abundance fitness was -0.267 ± 0.075.

Take “Lipoamide acyltransferase component of branched-chain alpha-keto acid dehydrogenase complex, mitochondrial T171V, P11182”: the abundance fitness was found to be 0.019 ± 0.057.

As to “Lipoamide acyltransferase component of branched-chain alpha-keto acid dehydrogenase complex, mitochondrial T171W, P11182”, the abundance fitness is -0.49 ± 0.075.

In turn, “Lipoamide acyltransferase component of branched-chain alpha-keto acid dehydrogenase complex, mitochondrial T171Y, P11182” registered an abundance fitness of -0.022 ± 0.062.

“Lipoamide acyltransferase component of branched-chain alpha-keto acid dehydrogenase complex, mitochondrial T174A, P11182” returned an abundance fitness of -0.347 ± 0.066.

Consider “Lipoamide acyltransferase component of branched-chain alpha-keto acid dehydrogenase complex, mitochondrial T174C, P11182”, for which the abundance fitness was -0.141 ± 0.081.

As for “Lipoamide acyltransferase component of branched-chain alpha-keto acid dehydrogenase complex, mitochondrial T174D, P11182”, the abundance fitness worked out at 0.003 ± 0.058.

“Lipoamide acyltransferase component of branched-chain alpha-keto acid dehydrogenase complex, mitochondrial T174E, P11182” showed an abundance fitness of -0.389 ± 0.053.

In turn, “Lipoamide acyltransferase component of branched-chain alpha-keto acid dehydrogenase complex, mitochondrial T174F, P11182” yielded an abundance fitness of -0.403 ± 0.075.

Turning to “Lipoamide acyltransferase component of branched-chain alpha-keto acid dehydrogenase complex, mitochondrial T174G, P11182”, the abundance fitness was -0.39 ± 0.038.

“Lipoamide acyltransferase component of branched-chain alpha-keto acid dehydrogenase complex, mitochondrial T174H, P11182” returned an abundance fitness of -0.206 ± 0.069.

“Lipoamide acyltransferase component of branched-chain alpha-keto acid dehydrogenase complex, mitochondrial T174I, P11182” registered an abundance fitness of -0.601 ± 0.11.

Substance “Lipoamide acyltransferase component of branched-chain alpha-keto acid dehydrogenase complex, mitochondrial T174K, P11182” registered an abundance fitness of -0.379 ± 0.063.

With “Lipoamide acyltransferase component of branched-chain alpha-keto acid dehydrogenase complex, mitochondrial T174L, P11182”, the abundance fitness is -0.724 ± 0.059.

Substance “Lipoamide acyltransferase component of branched-chain alpha-keto acid dehydrogenase complex, mitochondrial T174M, P11182” registered an abundance fitness of -0.643 ± 0.084.

Regarding “Lipoamide acyltransferase component of branched-chain alpha-keto acid dehydrogenase complex, mitochondrial T174N, P11182”, the abundance fitness is -0.064 ± 0.13.

Take “Lipoamide acyltransferase component of branched-chain alpha-keto acid dehydrogenase complex, mitochondrial T174V, P11182”: the abundance fitness was -0.773 ± 0.052.

In turn, “Lipoamide acyltransferase component of branched-chain alpha-keto acid dehydrogenase complex, mitochondrial T174W, P11182” gave an abundance fitness of -0.787 ± 0.045.

In turn, “Lipoamide acyltransferase component of branched-chain alpha-keto acid dehydrogenase complex, mitochondrial T213C, P11182” showed an abundance fitness of -0.179 ± 0.074.

With “Lipoamide acyltransferase component of branched-chain alpha-keto acid dehydrogenase complex, mitochondrial T213D, P11182”, the abundance fitness came out at 0.049 ± 0.058.

In the case of “Lipoamide acyltransferase component of branched-chain alpha-keto acid dehydrogenase complex, mitochondrial T213F, P11182”, the abundance fitness was -0.222 ± 0.069.

The substance “Lipoamide acyltransferase component of branched-chain alpha-keto acid dehydrogenase complex, mitochondrial T213G, P11182” had an abundance fitness of 0.093 ± 0.036.

As for “Lipoamide acyltransferase component of branched-chain alpha-keto acid dehydrogenase complex, mitochondrial T213H, P11182”, the abundance fitness was -0.062 ± 0.058.

As for “Lipoamide acyltransferase component of branched-chain alpha-keto acid dehydrogenase complex, mitochondrial T213K, P11182”, the abundance fitness stood at 0.145 ± 0.071.

Regarding “Lipoamide acyltransferase component of branched-chain alpha-keto acid dehydrogenase complex, mitochondrial T213L, P11182”, the abundance fitness was -0.185 ± 0.056.

In turn, “Lipoamide acyltransferase component of branched-chain alpha-keto acid dehydrogenase complex, mitochondrial T213M, P11182” gave an abundance fitness of -0.122 ± 0.097.

Turning to “Lipoamide acyltransferase component of branched-chain alpha-keto acid dehydrogenase complex, mitochondrial T213P, P11182”, the abundance fitness is -0.075 ± 0.065.

In turn, “Lipoamide acyltransferase component of branched-chain alpha-keto acid dehydrogenase complex, mitochondrial T213Q, P11182” had an abundance fitness of 0.005 ± 0.047.

Consider “Lipoamide acyltransferase component of branched-chain alpha-keto acid dehydrogenase complex, mitochondrial T213R, P11182”, for which the abundance fitness was 0.066 ± 0.045.

Consider “Lipoamide acyltransferase component of branched-chain alpha-keto acid dehydrogenase complex, mitochondrial T213S, P11182”, for which the abundance fitness is -0.008 ± 0.046.

“Lipoamide acyltransferase component of branched-chain alpha-keto acid dehydrogenase complex, mitochondrial T213V, P11182”: the abundance fitness is -0.028 ± 0.048.

Substance “Lipoamide acyltransferase component of branched-chain alpha-keto acid dehydrogenase complex, mitochondrial T213W, P11182” showed an abundance fitness of -0.247 ± 0.053.

Take “Lipoamide acyltransferase component of branched-chain alpha-keto acid dehydrogenase complex, mitochondrial T213Y, P11182”: the abundance fitness is -0.386 ± 0.15.

Take “Lipoamide acyltransferase component of branched-chain alpha-keto acid dehydrogenase complex, mitochondrial V177A, P11182”: the abundance fitness worked out at 0.038 ± 0.04.

In the case of “Lipoamide acyltransferase component of branched-chain alpha-keto acid dehydrogenase complex, mitochondrial V177D, P11182”, the abundance fitness is -0.417 ± 0.073.

For the substance “Lipoamide acyltransferase component of branched-chain alpha-keto acid dehydrogenase complex, mitochondrial V177E, P11182”, the abundance fitness is -0.385 ± 0.049.

“Lipoamide acyltransferase component of branched-chain alpha-keto acid dehydrogenase complex, mitochondrial V177F, P11182” came in with an abundance fitness of -0.818 ± 0.076.

Substance “Lipoamide acyltransferase component of branched-chain alpha-keto acid dehydrogenase complex, mitochondrial V177G, P11182” gave an abundance fitness of -0.289 ± 0.038.

“Lipoamide acyltransferase component of branched-chain alpha-keto acid dehydrogenase complex, mitochondrial V177H, P11182” had an abundance fitness of -0.547 ± 0.15.

The substance “Lipoamide acyltransferase component of branched-chain alpha-keto acid dehydrogenase complex, mitochondrial V177I, P11182” yielded an abundance fitness of -0.139 ± 0.058.

Regarding “Lipoamide acyltransferase component of branched-chain alpha-keto acid dehydrogenase complex, mitochondrial V177L, P11182”, the abundance fitness was -0.321 ± 0.04.

Take “Lipoamide acyltransferase component of branched-chain alpha-keto acid dehydrogenase complex, mitochondrial V177M, P11182”: the abundance fitness is -0.329 ± 0.078.

With “Lipoamide acyltransferase component of branched-chain alpha-keto acid dehydrogenase complex, mitochondrial V177N, P11182”, the abundance fitness is -0.742 ± 0.26.

As to “Lipoamide acyltransferase component of branched-chain alpha-keto acid dehydrogenase complex, mitochondrial V177P, P11182”, the abundance fitness is -0.64 ± 0.08.

For the substance “Lipoamide acyltransferase component of branched-chain alpha-keto acid dehydrogenase complex, mitochondrial V177R, P11182”, the abundance fitness is -0.802 ± 0.043.
